Test [1] addresses SARS-CoV-2 S receptor-binding domain (RBD), biotinylated (SARS-CoV-2, UniProt P0DTC2 330-531). The test can be described thus: BLI. On the technique in general: In BLI a coated tip is dipped into the sample, and binding shifts an interference pattern.
For test [2], the target named is biotinylated SARS-CoV RBD (SARS-CoV, UniProt P59594, biotin). The test can be described thus: BLI.

A word on the koff: it is the rate constant with which the complex falls apart.

B1: scFD20 (single-chain variable fragment of FD20) (scFv, V domains shown)
VH: QVQLQQSGAEVKKPGSSVKVSCKASGGTFSSYAFSWVRQAPGQGLEWMGRIIPILGIANYAQKFQGRVTITADISTSTAYMALSSLRSEDTAVYYCAKVEVNIGMDDYYYYYGMDVWGQGTTVTVSS
VL: not shown
Turning to B1, the values for the off-rate constant (koff) in test [1] and in test [2] were 0.000664 s⁻¹ and 0.00054 s⁻¹, respectively.

The values above are taken from PMC8646660 (2021).
